According to the supplement of paper PMC11246515:
± gives the standard deviation of the averaged measurements.

Test: total protein half-life in vivo (active degradation + dilution); higher = more stable protein
[1] = E. coli NCM3722 delta-clpP delta-lon delta-hslV, growth: N-lim chemostat, doubling time 6 h
[2] = wild type E. coli NCM3722, growth: C-lim chemostat, doubling time 6 h
[3] = wild type E. coli NCM3722, growth: N-lim chemostat, doubling time 6 h
[4] = E. coli NCM3722 delta-lon, growth: N-lim chemostat, doubling time 6 h
[5] = wild type E. coli NCM3722, growth: C-lim chemostat, doubling time 3 h
[6] = wild type E. coli NCM3722, growth: C-lim chemostat, doubling time 12 h
[7] = wild type E. coli NCM3722, growth: P-lim chemostat, doubling time 6 h
[8] = wild type E. coli NCM3722, growth: P-lim chemostat, doubling time 12 h
[9] = E. coli NCM3722 delta-clpP, growth: N-lim chemostat, doubling time 6 h
[10] = E. coli NCM3722 delta-hslV, growth: N-lim chemostat, doubling time 6 h
[11] = E. coli NCM3722 delta-smpB, growth: N-lim chemostat, doubling time 6 h
[12] = wild type E. coli NCM3722, growth: N-lim chemostat, doubling time 12 h

Row | Sequence | total protein half-life in vivo [1] | total protein half-life in vivo [2] | total protein half-life in vivo [3] | total protein half-life in vivo [4] | total protein half-life in vivo [5] | total protein half-life in vivo [6] | total protein half-life in vivo [7] | total protein half-life in vivo [8] | total protein half-life in vivo [9] | total protein half-life in vivo [10] | total protein half-life in vivo [11] | total protein half-life in vivo [12]
1 | MKTLIARHKAGEHIGICSVCSAHPLVIEAALAFDRNSTRKVLIEATSNQVNQFGGYTGMTPADFREFVFTIADKVGFARERIILGGDHLGPNCWQQENADAAMEKSVELVKEYVRAGFSKIHLDASMSCAGDPIPLAPETVAERAAVLCFAAESVATDCQREQLSYVIGTEVPVPGGEASAIQSVHITHVEDAANTLRTHQKAFIARGLTEALTRVIAIVVQPGVEFDHSNIIHYQPQEAQPLAQWIENTRMVYEAHSTDYQTRTAYWELVRDHFAILKVGPALTFALREAIFALAQIEQELIAPENRSGCLAVIEEVMLDEPQYWKKYYRTGFNDSLLDIRYSLSDRIRYYWPHSRIKNSVETMMVNLEGVDIPLGMISQYLPKQFERIQSGELSAIPHQLIMDKIYDVLRAYRYGCAE [P0C8J8] | 5.59 h | 2.97 h | > 8 h | – | – | – | – | – | – | – | – | –
2 | MSRPTIIINDLDAERIDILLEQPAYAGLPIADALNAELDRAQMCSPEEMPHDVVTMNSRVKFRNLSDGEVRVRTLVYPAKMTDSNTQLSVMAPVGAALLGLRVGDSIHWELPGGVATHLEVLELEYQPEAAGDYLL [P0AFW4] | 4.22 ± 0.14 h | 1.55 ± 0.086 h | 1.43 ± 0.68 h | 1.49 h | 1.02 ± 0.099 h | 2.08 ± 0.0038 h | 1.36 h | 2.53 h | – | – | – | –
3 | MARAVHRSGLVALGIATALMASCAFAAKDVVVAVGSNFTTLDPYDANDTLSQAVAKSFYQGLFGLDKEMKLKNVLAESYTVSDDGITYTVKLREGIKFQDGTDFNAAAVKANLDRASDPANHLKRYNLYKNIAKTEAIDPTTVKITLKQPFSAFINILAHPATAMISPAALEKYGKEIGFYPVGTGPYELDTWNQTDFVKVKKFAGYWQPGLPKLDSITWRPVADNNTRAAMLQTGEAQFAFPIPYEQATLLEKNKNIELMASPSIMQRYISMNVTQKPFDNPKVREALNYAINRPALVKVAFAGYATPATGVVPPSIAYAQSYKPWPYDPVKARELLKEAGYPNGFSTTLWSSHNHSTAQKVLQFTQQQLAQVGIKAQVTAMDAGQRAAEVEGKGQKESGVRMFYTGWSASTGEADWALSPLFASQNWPPTLFNTAFYSNKQVDDFLAQALKTNDPAEKTRLYKAAQDIIWQESPWIPLVVEKLVSAHSKNLTGFWIMPDTGFSFEDADLQ | 5.029 ± 0.012 h | 6.6 ± 0.26 h | 6.04 ± 0.39 h | 6.43 ± 0.089 h | 3.21 ± 0.061 h | 13 ± 0.86 h | 5.85 ± 0.27 h | 13.3 ± 0.87 h | 5.36 ± 0.42 h | 6.42 ± 0.61 h | 5.72 ± 0.071 h | 13.2 ± 0.28 h
4 | MITHISPLGSMDMLSQLEVDMLKRTASSDLYQLFRNCSLAVLNSGSLTDNSKELLSRFENFDINVLRRERGVKLELINPPEEAFVDGRIIRALQANLFAVLRDILFVYGQIHNTVRFPNLNLDNSVHITNLVFSILRNARALHVGEAPNMVVCWGGHSINENEYLYARRVGNQLGLRELNICTGCGPGAMEAPMKGAAVGHAQQRYKDSRFIGMTEPSIIAAEPPNPLVNELIIMPDIEKRLEAFVRIAHGIIIFPGGVGTAEELLYLLGILMNPANKDQVLPLILTGPKESADYFRVLDEFVVHTLGENARRHYRIIIDDAAEVARQMKKSMPLVKENRRDTGDAYSFNWSMRIAPDLQMPFEPSHENMANLKLYPDQPVEVLAADLRRAFSGIVAGNVKEVGIRAIEEFGPYKINGDKEIMRRMDDLLQGFVAQHRMKLPGSAYIPCYEICT [P0ADR8] | 5.75 ± 1.1 h | 6.01 ± 0.13 h | 5.07 ± 0.029 h | 5.1 ± 0.26 h | 3.03 ± 0.13 h | 11.3 ± 0.31 h | 5.93 ± 0.55 h | 11.9 ± 0.48 h | 4.95 ± 0.11 h | 5.02 ± 0.07 h | 4.58 ± 0.19 h | 9.48 ± 0.11 h
5 | MKFIIKLFPEITIKSQSVRLRFIKILTGNIRNVLKHYDETLAVVRHWDNIEVRAKDENQRLAIRDALTRIPGIHHILEVEDVPFTDMHDIFEKALVQYRDQLEGKTFCVRVKRRGKHDFSSIDVERYVGGGLNQHIESARVKLTNPDVTVHLEVEDDRLLLIKGRYEGIGGFPIGTQEDVLSLISGGFDSGVSSYMLMRRGCRVHYCFFNLGGAAHEIGVRQVAHYLWNRFGSSHRVRFVAINFEPVVGEILEKIDDGQMGVILKRMMVRAASKVAERYGVQALVTGEALGQVSSQTLTNLRLIDNVSDTLILRPLISYDKEHIINLARQIGTEDFARTMPEYCGVISKSPTVKAVKSKIEAEEEKFDFSILDKVVEEANNVDIREIAQQTEQEVVEVETVNGFGPNDVILDIRSIDEQEDKPLKVEGIDVVSLPFYKLSTKFGDLDQNKTWLLWCERGVMSRLQALYLREQGFNNVKVYRP | 4.16 ± 1 h | 4.62 ± 0.53 h | 2.952 ± 0.021 h | 3.57 ± 0.082 h | 3 ± 0.2 h | 7.48 ± 0.32 h | 5.66 ± 1.4 h | 8.76 ± 0.25 h | 2.72 ± 0.25 h | 2.86 ± 0.2 h | 2.827 ± 0.0041 h | 3.99 ± 0.086 h
6 | MSLFHLIAPSGYCIKQHAALRGIQRLTDAGHQVNNVEVIARRCERFAGTETERLEDLNSLARLTTPNTIVLAVRGGYGASRLLADIDWQALVARQQHDPLLICGHSDFTAIQCGLLAHGNVITFSGPMLVANFGADELNAFTEHHFWLALRNETFTIEWQGEGPTCRAEGTLWGGNLAMLISLIGTPWMPKIENGILVLEDINEHPFRVERMLLQLYHAGILPRQKAIILGSFSGSTPNDYDAGYNLESVYAFLRSRLSIPLITGLDFGHEQRTVTLPLGAHAILNNTREGTQLTISGHPVLKM | 4.96 ± 0.9 h | 5 ± 0.86 h | 3.693 ± 0.016 h | 4.07 ± 0.22 h | 3.13 ± 0.084 h | 9.85 ± 0.41 h | 6.058 ± 0.043 h | 10.8 ± 0.56 h | 3.76 ± 0.25 h | 4.05 ± 0.72 h | 3.65 ± 0.53 h | 6.99 ± 0.87 h
7 | MQLNITGNNVEITEALREFVTAKFAKLEQYFDRINQVYVVLKVEKVTHTSDATLHVNGGEIHASAEGQDMYAAIDGLIDKLARQLTKHKDKLKQH [P0AFX0] | 4.19 ± 0.41 h | 4.75 ± 0.17 h | 3.39 ± 0.5 h | 4.08 ± 0.13 h | 2.51 ± 0.14 h | 8.14 ± 0.53 h | 4.21 ± 0.12 h | 7.16 ± 0.65 h | 3.97 ± 0.51 h | 3.49 ± 0.22 h | 3.67 ± 0.043 h | 7.37 ± 0.34 h
8 | MFDSLAKAGKYLGQAAKLMIGMPDYDNYVEHMRVNHPDQTPMTYEEFFRERQDARYGGKGGARCC [P0AAS9] | – | 1.49 ± 0.45 h | – | – | 1.43 h | 1.47 h | – | – | – | – | – | –
